This test deals with rhC1s (human) (UniProt P09871). The test can be described thus: inhibition of C1s cleavage of a colorimetric peptide substrate, mean OD value; C is the midpoint of the 4-parameter fit.

Consider two substances from patent publication US20160130324A1.

rhC1s (human), sequence (P09871 16-688 limits assumed): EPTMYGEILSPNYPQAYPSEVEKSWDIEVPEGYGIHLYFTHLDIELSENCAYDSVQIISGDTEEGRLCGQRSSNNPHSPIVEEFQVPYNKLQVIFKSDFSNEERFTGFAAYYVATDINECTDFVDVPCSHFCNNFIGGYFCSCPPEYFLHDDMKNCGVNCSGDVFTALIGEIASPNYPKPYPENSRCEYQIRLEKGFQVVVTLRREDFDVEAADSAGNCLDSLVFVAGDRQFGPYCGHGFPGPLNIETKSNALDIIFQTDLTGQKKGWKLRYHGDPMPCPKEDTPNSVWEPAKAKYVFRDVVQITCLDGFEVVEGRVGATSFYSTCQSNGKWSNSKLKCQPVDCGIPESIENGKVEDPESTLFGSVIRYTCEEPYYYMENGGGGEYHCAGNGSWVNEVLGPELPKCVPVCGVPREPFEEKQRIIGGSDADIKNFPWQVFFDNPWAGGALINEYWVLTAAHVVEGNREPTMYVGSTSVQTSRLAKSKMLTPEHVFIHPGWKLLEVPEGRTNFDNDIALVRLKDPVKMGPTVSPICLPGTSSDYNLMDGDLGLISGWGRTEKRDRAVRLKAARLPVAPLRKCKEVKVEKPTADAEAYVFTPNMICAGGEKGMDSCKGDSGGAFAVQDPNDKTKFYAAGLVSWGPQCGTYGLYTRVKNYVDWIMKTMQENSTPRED

By IC50 is commonly meant the midpoint of a concentration-inhibition curve. The low end stands for higher potency, the high end for lower potency. As to HSA-C1-INH, the 50% inhibitory concentration (IC50) was 1.67 nM. For HSA_D3-C1-INH the value was 1.45 nM.
